Experimental data as given in PMC3669278, “An Iron 13S-Lipoxygenase with an α-Linolenic Acid Specific Hydroperoxidase Activity from Fusarium oxysporum” (PLoS ONE, 2013).

Tests used:
[1] = biological target: T1, FoxLOX (Fusarium oxysporum, UniProt A0A0J9UTC2); assay: initial rate of conjugated diene formation at […] nm, Michaelis-Menten fit; assay type: biochemical; settings: 50 mM Tris/HCl pH 8.0, room temperature, air-equilibrated, fatty acid sodium salt
T1 construct: gene FOXG_04807; full-length ORF, 744 residues, in pET28a with N-terminal hexa-His tag (removal not mentioned); E. coli Bl21star; non-heme iron; iron-ligand residues His-408, His-413, His-595, Asp-599, Ile-744
T1 sequence (A0A0J9UTC2 1-744): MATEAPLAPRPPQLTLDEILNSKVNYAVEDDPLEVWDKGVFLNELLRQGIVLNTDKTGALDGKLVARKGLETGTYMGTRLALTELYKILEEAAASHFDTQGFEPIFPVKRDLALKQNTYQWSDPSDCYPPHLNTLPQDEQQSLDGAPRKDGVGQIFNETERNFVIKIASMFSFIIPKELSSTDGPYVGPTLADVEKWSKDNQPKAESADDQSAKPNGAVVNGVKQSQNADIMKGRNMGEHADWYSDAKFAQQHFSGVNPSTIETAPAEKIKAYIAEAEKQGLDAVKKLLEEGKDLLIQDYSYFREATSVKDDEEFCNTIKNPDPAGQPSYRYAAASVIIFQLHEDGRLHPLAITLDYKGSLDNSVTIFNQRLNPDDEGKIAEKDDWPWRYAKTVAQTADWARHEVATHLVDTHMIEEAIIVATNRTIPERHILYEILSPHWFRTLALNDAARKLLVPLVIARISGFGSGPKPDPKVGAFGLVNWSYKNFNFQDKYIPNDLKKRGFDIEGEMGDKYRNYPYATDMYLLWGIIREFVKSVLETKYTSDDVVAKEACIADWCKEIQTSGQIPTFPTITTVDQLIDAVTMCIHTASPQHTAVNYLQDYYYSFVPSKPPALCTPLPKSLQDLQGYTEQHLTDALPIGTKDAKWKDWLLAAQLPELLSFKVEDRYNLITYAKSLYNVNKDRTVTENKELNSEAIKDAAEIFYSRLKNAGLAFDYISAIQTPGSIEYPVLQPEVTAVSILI

[2] = biological target: FoxLOX (Fusarium oxysporum lipoxygenase, iron 13S-lipoxygenase) (Fusarium oxysporum f. sp. lycopersici strain 4287); assay: SEC; S200pg 26/60 column; 50 mM Tris/HCl pH 8.0, 10% glycerol, 125 mM NaCl; affinity-purified FoxLOX; apparent mass about 173 kDa against about 80 kDa by SDS-PAGE and 83.5 kDa theoretical
[3] = substrate: CCCCC/C=C\C/C=C\C/C=C\C/C=C\CCCC(=O)O; assay: purified protein; assay type: biochemical, Fusarium oxysporum; settings: 50 mM Tris/HCl pH 8.0, room temperature, air-equilibrated, fatty acid sodium salt

With `CCCCC/C=C\C/C=C\CCCCCCCC(=O)O` [18∶2(n-6)] the Km [1] was 6.89 ± 0.79 µM.

Molecule `CC/C=C\C/C=C\C/C=C\CCCCCCCC(=O)O` [18∶3(n-3)] has a Km [1] of 31.7 ± 3.79 µM.

`CCCCC/C=C\C/C=C\C/C=C\CCCCC(=O)O` [18∶3(n-6)] was tested, and the Km [1] was 34.8 ± 5.38 µM.

With “FoxLOX (Fusarium oxysporum lipoxygenase, iron 13S-lipoxygenase) (enzyme)” the stoichiometry N [2] was 2.

B1: FoxLOX (Fusarium oxysporum f. sp. lycopersici 4287) (protein)
chain: MATEAPLAPRPPQLTLDEILNSKVNYAVEDDPLEVWDKGVFLNELLRQGIVLNTDKTGALDGKLVARKGLETGTYMGTRLALTELYKILEEAAASHFDTQGFEPIFPVKRDLALKQNTYQWSDPSDCYPPHLNTLPQDEQQSLDGAPRKDGVGQIFNETERNFVIKIASMFSFIIPKELSSTDGPYVGPTLADVEKWSKDNQPKAESADDQSAKPNGAVVNGVKQSQNADIMKGRNMGEHADWYSDAKFAQQHFSGVNPSTIETAPAEKIKAYIAEAEKQGLDAVKKLLEEGKDLLIQDYSYFREATSVKDDEEFCNTIKNPDPAGQPSYRYAAASVIIFQLHEDGRLHPLAITLDYKGSLDNSVTIFNQRLNPDDEGKIAEKDDWPWRYAKTVAQTADWARHEVATHLVDTHMIEEAIIVATNRTIPERHILYEILSPHWFRTLALNDAARKLLVPLVIARISGFGSGPKPDPKVGAFGLVNWSYKNFNFQDKYIPNDLKKRGFDIEGEMGDKYRNYPYATDMYLLWGIIREFVKSVLETKYTSDDVVAKEACIADWCKEIQTSGQIPTFPTITTVDQLIDAVTMCIHTASPQHTAVNYLQDYYYSFVPSKPPALCTPLPKSLQDLQGYTEQHLTDALPIGTKDAKWKDWLLAAQLPELLSFKVEDRYNLITYAKSLYNVNKDRTVTENKELNSEAIKDAAEIFYSRLKNAGLAFDYISAIQTPGSIEYPVLQPEVTAVSILI
notes: full-length ORF, 744 residues, in pET28a with N-terminal hexa-His tag (removal not mentioned); E. coli Bl21star; non-heme iron; iron-ligand residues His-408, His-413, His-595, Asp-599, Ile-744
B1 was tested, and the Km [3] was 3.37 ± 0.55 µM, the kcat [3] was 1.71 ± 0.0632 s⁻¹ and the kcat/Km [3] was 507000 M⁻¹ s⁻¹.
